A word on the Kd: it is a measure of binding affinity in units of concentration. A low value points to a tighter complex.

This is an account of results in article doi:10.1101/2023.09.30.560296 (bioRxiv, 2023).

For assay [1], the target named is T1, GST-fused LC3B (UniProt Q9GZQ8 1-120). The assay is described as follows: Microfluidic Diffusional Sizing.
The target of assay [2] is T1, GST-fused LC3B. As to the kind of experiment: SPR. On the technique in general: Surface plasmon resonance follows binding to a sensor surface in real time, without labels.

Where “and” joins values, the source holds several entries; their conditions need not be identical. Identical values can stand only once. Square brackets hold non-standard residues; d marks the D form. Ends that are not written are not given here. * marks the point of attachment. FITC = O=C1OC2(c3ccc(O)cc3Oc3cc(O)ccc32)c2ccc(NC(=S)*)cc21; pS = N[C@@H](COP(=O)(O)O)C(=O)O; Ahx = NCCCCCC(=O)O

Turning to {FITC-Ahx}-NSSGSSED[pS]FVEIRMAE [FITC-Ahx OPTN LIR peptide 169-185 (pS177)], the Kd in the assay with GST-fused LC3B [1] was 14.3 µM and 13.7 µM.

For {FITC-Ahx}-NSSGSSEDSWVEIRMAE [FITC-Ahx OPTN LIR peptide 169-185 (F178W)], the Kd with GST-fused LC3B [1] was 15.9 µM.

Take {FITC-Ahx}-NSSGSSEDDFVEIRMAE [FITC-Ahx OPTN LIR peptide 169-185 (S177D)]: the Kd was 36.7 µM in the assay with GST-fused LC3B [2] and 44.8 µM with GST-fused LC3B [1].

For {FITC-Ahx}-NSSGSSEDEFVEIRMAE [FITC-Ahx OPTN LIR peptide 169-185 (S177E)], in the assay with GST-fused LC3B [1], binding was put at a Kd of 42.8 µM.

{FITC-Ahx}-NSSGSSED[pS]AVEIRMAE [FITC-Ahx OPTN LIR peptide 169-185 (pS177 F178A)] registered a Kd in the assay with GST-fused LC3B [2] of over 100 µM. Besides, the “fold increase of Kd against pS177” value in the assay with GST-fused LC3B [1] came out at 5 fold.

{FITC-Ahx}-NSSGSSED[pS]FVEIRAAE [FITC-Ahx OPTN LIR peptide 169-185 (pS177 M183A)] returned a Kd in the assay with GST-fused LC3B [2] of 36.7 µM.

For {FITC-Ahx}-NSSGSSED[pS]WVEIRMAE [FITC-Ahx OPTN LIR peptide 169-185 (pS177 F178W)], in the assay with GST-fused LC3B [1], the “fold increase of binding affinity against pS177” value came out at 7 fold.
